From the DeepSol protein solubility set come the findings set out here.

This data set is described as follows: soluble on expression in E. coli; label from the status in PepcDB or PDB records.
Take “MGSDKIHHHHHHMMPIRRPFGRGPAVSLFTLGTMRAIGSAEQMYGVVKAAQAAGINHIETSPAYGPAESFLGTALRQLQQKQAEPSGGWVITSKLLPGLSLKEGQCELHNLLARLGRPKLENLAVHGLNRPEHLEWALSGDGAALLRWAEEEDLVVQVGFTSHGSFPLIKEALASGRFQFCSLHLHLLDPERIPLAREALASGMGVMAISPADKGGRLQDPSPTLVEDCSPLSPLQLAYRFLLAAKISTLSLGAAQPEDLTLAAQLANADGPLNQREQRALNQLRQQGERRLGENRCGQCKACLPCPKSVPIPDLLRLRNLAVGHNLQAFTEERYNLIGRAGHWWEGIDGSACERCGECLPRCPHHLPIPDLLADTHQRLAAAPRRRLWG”: the “soluble on expression in E. coli” value is “not soluble”.
As for “MITLGFMSLSRQHEADYSAELAKRAPEFGIRFIRFTPFDISPDTLRVKASVYHSASSTWNETEMAIPDYIYDRCFYGKDSHSQKAKPIVEWLKKYPKTEFIGRGLPDKWTVLHDLQQHSVINPYIPETIKVSRYEQIHSFLSKEKACILKPAFGAGGRGVILLKLGKKNITATYHIGKDKQTKTFSNQTSFKTWCKKVLQHQYLLQPYLNIQDKEQYPCDIRLFMEKNEAGEWNTVGKAVRRGYKHGLLANLSGGSDALTFDSWFEDIPKKQQVVLLDDVFSITQSVPYYLDERYGPLFELGLDICLAKDGRIWILDINSKPGRKSILRVSPEQKEQLYTCPLKRCQYLFSEQSQKGVLPRES”, the “soluble on expression in E. coli” value is “not soluble”.
With “MGSDKIHHHHHHMELNIPLVLQNKTPIYLQIYEYMKREISHGSLCAGTRLPSHRNLAMQLNVSRITVESAYQQLLAEGYVESKPKRGIFVAEVDIDVIQKKQQIVSNSANNKEKEQYDYDCSQGLIDQKAFPITNWKRALHETLFQYENELFAKEDPQGELVLREHISKYLYHARGVHSSPDQIIIGAGTQPLLWLLLQLLGSKKEYGIENPGFHRIPAMIQSSGLPVHPIPLDDKGIHISALRESGSNVAYVTPSHQFPLGIIMPLSRRLELLKWANDCKGYIVEDDYDGEFRYIGKPIPSLQGLDSNERVIYMGTFSKSFLPSLRMGYIVLPPHLLKTYKELGGMYKQTVSTMQQLTFATFIQSGDWERHINRSRTLYKRKHISLIKSITNEMGNNVHILGEQSGLHIVLHVHNGMNEQELIHAAAKQRIKLYPLSTYDSVHNVREESYVLLGFGSIPENRIETVVQLLKKAWFPK”, the “soluble on expression in E. coli” value was “not soluble”.
To “MPWKCYRDYNLESQILKYRTTADVIMKSMYKLEIESLKRELAEYRRGNNGSHSDCKYYDEEAREEVS” belongs “not soluble”; to “MTFRGPSPPRFGHSMDLPAYAIEAEGLYKTYAGTKTSPEKRALNGIDLKIPRGSIFGLLGPNGAGKSTFINILAGLVRKSSGTVRIWGRDIDQRPRDARAAIGVVPQELAADVFFTPRESLEVQAGFYGVPKSERRTDELLNALGLGDKAGAYVRQLSGGMKRRLMVAKAMVHQPPVLILDEPTAGVDVELRRQLWQYVTSLNELGVTIVLTTHYLEEAQELCDEIAIINRGEVVACEPTAKLLSRMDSRNVVVTPESPVTAAPVLEGFDTKLRSGGAFSVSYRTGQSSVEQVLAAVRASGLHIKDIATEDPDLEDVFVALTYGDPNAADPTKDLEHHHHHH”, “not soluble”; to “MGSDKIHHHHHHMIDNIMAILEPVIGRTIKRKISTMSGKKLPFIAGHKLLYTCNLRCDMCPFWRRKDEKLLSLEEEIKMMDSLASAGVSFMGFEGGEPLLRNDLEDILKESHKRFHTSLVTNGWLLKGRASSISRYLDYLFVSIDGRKETHDKQRGVPSSFDHAIEGIKEAKKYVPVAMSTTITTNNMDDIKYVVNLAEELGIGVNIQVSYDYSTADKLSPDRKKLYDLLLDLKKMKEDGAPIVNSKEYFDTLVNSWYYGIPWACKPWSTVNIDPQGRIVMPCYVLNEYAGEKKVWEIDIKELWNTYDWKPYESCNKCSLSCYLEPSIFSWRKPSMVSERIFGSIADYIASIF”, “not soluble”.
Regarding “MAHHHHHHMNVRKGILNYLTLHSTIVRRNHHRSYHKECRQQGSPHGMEKNSKMKNVRPNYFVCIPLSGNKALVEEFLKVQNHVASKFEMLKECAIERNKFHISLLILHVKKSQMESSKEAFHEAMAEIKKLNHQAISFDTLETFRNDVLYAGLQEGSRKYVMNVIALLRDSFAKRDIHIFGNRKGREEARGKKRASGASDKSAANPIDKSAANPSDKSAAPPGTHERDDKEQITPHVTIMKNSYLRKIYANRKPQIFADYYADFNLSKLKNERVVPNKIQFLEMDTDSATSYYRIIAECGLP”, the “soluble on expression in E. coli” value is “not soluble”.
Consider “MIFSDWPWRHWRQVRGETIALRLNDEQLNWRELCARVDELASGFAVQGVVEGSGVMLRAWNTPQTLLAWLALLQCGARVLPVNPQLPQPLLEELLPNLTLQFALVPDGENTFPALTSLHIQLVEGAHAATWQPTRLCSMTLTSGSTGLPKAAVHTYQAHLASAQGVLSLIPFGDHDDWLLSLPLFHVSGQGIMWRWLYAGARMTVRDKQPLEQMLAGCTHASLVPTQLWRLLVNRSSVSLKAVLLGGAAIPVELTEQAREQGIRCFCGYGLTEFASTVCAKEADGLADVGSPLPGREVKIVNNEVWLRAASMAEGYWRNGQLVSLVNDEGWYATRDRGEMHNGKLTIVGRLDNLFFSGGEGIQPEEVERVIAAHPAVLQVFIVPVADKEFGHRPVAVMEYDHESVDLSEWVKDKLARFQQPVRWLTLPPELKNGGIKISRQALKEWVQRQQ”, for which the “soluble on expression in E. coli” value is “soluble”.
As to “MSLKRSEFPENELWDLTALYKDRQDFLLAIEKALEDIKVFKKNYEGKLNCVEDFTSALMEIEHIYIQMSHIDTYAFMPQTTDFSNEEFAQISQAGSDFATKANVLLSFFNTALANADIKILDSLENNPHFKATIRQAKIQKQHLLSPEVEKALTNLNEVLNTPYDIYTKMRAGDFDMEDFEVDGKTYKNSFVTYENYFQNHENAEIREKSFRSFSKGLRKHQNAAAAAYLAKVKSEKLIADMRGYDSVFDYLLSEQEVDRSMFDRQIDLIMDEFGPVAQRFLKHIADVNGIEKMTFADWKLDIDNELNPEVSINDAYDLVMKSVAPLGKEYSQEVERYQKERWVDFAANANKDSGGYAADPYKVHPYVLMSWTGRMSDVYTLIHEIGHSGQFIFSDNHQSFFNTHMSTYYVEAPSTFNELLLSDYLENQFDTARQKRFALAHRLTDTYFHNFITHLLEAAFQRKVYTLIEEGGTFGAEQLNAIMKEVLTQFWGDAIEIDDDAALTWMRQAHYYMGLYSYTYSAGLVISTAGYLNLKNNPNGAKEWLAFLKSGGSRTPLETALLISADISTDKPLRDTINFLSNTVDQIINYSNLIEQEGHHHHHH”, the “soluble on expression in E. coli” value is on record as “soluble”.
To “MGAVNKDVFATGAGQVDPAKVLSPGLVYDATTEDYLKFIQGTGMDLGMEGLGTTQARDMNVPSFALGNLAGKIEVTRTLTALTPGTYRASVNVPGVNVKVTPSVLTFGAPGEKKTFKVQFENNNAALGKFAMGSLNWQGANKTVTSPIAVRPQSVIALEHHHHHH” belongs “not soluble”.
Turning to “MGSDKIHHHHHHMNLGNPIAKGNTAEIYLYDNKIMKLFKDYLPNTESMNEAKKQKYAYSCGLPVPNVFEVTKIQNRQAIIMEYVKGDSIGDLLLNNLNEAEYYINICVNEQKKIHAIHVNTDEMEAMGERLERQIKSVHKLDEKQKESILNKLHSIKLDPRLCHGDFHPFNLILSEKNVSIIDWIDASSGDIRADLFRTYLLYSQSSVELAEKYLHIYCRNTGLSRDEIFQWAPIIIAARISENVTATNIEYLNDLVAQYCN”, the “soluble on expression in E. coli” value is reported as “not soluble”.
Consider “MGSDKIHHHHHHMSVTNVTREELWAKQHLSCKNMDYAVWERDKSMLQKLSRINGGCSFVVDVYKGCYAYASTGFVDWLGYDRHKIETLEKQGDYLESRIHPHDRSQLEDLQVRLGKFIYNQPFEHRNDYCNVYSFRILNARGNYVRVTSRHQVLEQSHDGKAWLIIGNMSMAPGQKESEQVECTVLNLRNGEMFSPGVVIMNPAFGLTGREMEILRLIQRGFLSKEIADKLCISIHTVHIHRQNLLRKLGVQNSLEAIRLGQESGLLS”, for which the “soluble on expression in E. coli” value is on record as “not soluble”.
Consider “MGSDKIHHHHHHMDELVDGERESGRAALGRTLRLLREKSGKTLGQLAGETSYDKSYLYRLETGERLSKRAVMEDLDRYHGSGDLLVRLWRDARKDVIKDKYKAFMELEATARVMWKFQLRVPGLLQTEDYARVVLSGLSRAQTTAGNGEEVEEQVAARVGRQEMLHRQPAPSVRVILDEGALRRRVPKEKVWADQLVHLVDVAELASVTLQVLPFTAGVHDLMNSDLTLMWQRVGEPVAYVEGNGFGELVDDPDKVLSYRLSYDLVRDAALTPAESTTFIKRLLEECRS”, for which the “soluble on expression in E. coli” value was “not soluble”.
With “MSTGKIQFAEQNGSFVLKFVGEVRLTLCSALDSTIEKIFAALNFSAIIIDLTETQSIDSTTLGLLAKLSILSRQKIGLLPTLVTTNPDITRLLQSMGFDQVFNIVDRPIPCPECLSDLPPQDQSEDVVRDKVLEAHRILMGLNESNREAFHDLVSALERH” the entry was “not soluble”.
As for “MLAEIKGLNEECGVFGIWGHENAAQVSYYGLHSLQHRGQEGAGIVVNNGEKIVGHKGLGLISEVFSRGELEGLNGKSAIGHVRYATAGGSEVANVQPLLFRFSDHSMALAHNGNLINAKMLRRELEAEGSIFQTSSDTEVLLHLIKRSTKDSLIESVKEALNKVKGAFAYLLLTGNEMIVALDPNGFRPLSIGKMGDAYVVASETCAFDVVGATYIRDVEPGELLIINDEGIHVDRFTNEVDHAICSMEYIYFARPDSNIAGINVHAARKNMGKRLAAEAPIEADVVTGVPDSSISAAIGYAEATGIPYELGLIKNRYVGRTFIQPSQELREQGVKMKLSAVRGVVEGKRVVMIDDSIVRGTTSKRIVRMLREAGATEVHVRIASPPLKYPCFYGIDIQTRKELIAANHTVEEIREMIGADSLTFLSEDGLVDAIGRPYEGKYGGLCMAYFNGDYPTALYDYEQELLESMK”, the “soluble on expression in E. coli” value is recorded as “not soluble”.
For the sequence “MTLTELRYIVAVAQERHFGRAARRCFVSQPTLSIAIKKLEEELAVSLFDRSSNDIITTEAGERIVAQARKVLEEAELIRHLANEEQNELEGAFKLGLIFTVAPYLLPKLIVSLRRTAPKMPLMLEENYTHTLTESLKRGDVDAIIVAEPFQEPGIVTEPLYDEPFFVIVPKGHSFEELDAVSPRMLGEEQVLLLTEGNCMRDQVLSSCSELAAKQRIQGLTNTLQGSSINTIRHMVASGLAISVLPATALTENDHMLFSIIPFEGTPPSRRVVLAYRRNFVRPKALSAMKAAIMQSQLHGVSFICD”, the “soluble on expression in E. coli” value is on record as “soluble”.
For “RQGELSIACLPVFSQSFLPLLLPPFLSRYPEVSLQIVPQESPLLEEWLSAQRHDLGLTETLHTPAGTERTPLLTLNEVCVLPAGHPLAAQATLTPADFQGENYISLSRTDSYRQLLDALFLEHQVKRRMVVETHSAASICAMVRAGA”, the “soluble on expression in E. coli” value is reported as “not soluble”.
To “MRSRPTEGNLLVSIGIPFLNPGPYLDLAVRSVFAQTYLNWELILVDDGSTDGSYERAVAIQDPRVRVLRDGQNKGLPARLNEIVRLAKGELVARMDADDAMHPLRLEKQVGFLQANPELDGVTTGAYLIDAEDRPIALLPGRQPSAQEVLARGGFLHPSLLARKSWFEAHPYSLDYPRAEDRELFVRTFKTSRLHVLSEPLYFYRWFGVPRGKTLRIGYRSERKVMWKYGPNLVGWGPSLRLIALSFGKELLTWFLEWTHLEKGFQTRRAFQPLLEMDQREALRTLKVIRETCVPGWDLEHHHHHH” belongs “not soluble”.
Turning to “MGSDKIHHHHHHMIKVSQLTVRYGELKAVEDLSLEVQRGEILSLVGPSGCGKTTVVKAILGLIPYEGKIEIFTSRLGYCPQKDVLFDWMTVYENAVLPLVLRKEQPPSNIKELFERFGLSGFEEKRPYQLSGGMRQKLSLLRAVLSGEELLVLDEPFSSVDAYTRKKLQIWLSEIVHRMKSTVVLITHDVEEAVFLSDRILILSDRPARILKEIRVPFSKPRTIKTFSDPRFSEIEEEVLETLMNQP”, the “soluble on expression in E. coli” value is “not soluble”.
